Read-outs that look alike come from different tables or passages of the source.

Assay in all cases: EMSA
(In EMSA bound probe runs differently from free probe, usually more slowly.)

The target in data set [1] is T1, MutSΔ800 (Escherichia coli, UniProt P23909 1-800, del801-853).
T1 sequence: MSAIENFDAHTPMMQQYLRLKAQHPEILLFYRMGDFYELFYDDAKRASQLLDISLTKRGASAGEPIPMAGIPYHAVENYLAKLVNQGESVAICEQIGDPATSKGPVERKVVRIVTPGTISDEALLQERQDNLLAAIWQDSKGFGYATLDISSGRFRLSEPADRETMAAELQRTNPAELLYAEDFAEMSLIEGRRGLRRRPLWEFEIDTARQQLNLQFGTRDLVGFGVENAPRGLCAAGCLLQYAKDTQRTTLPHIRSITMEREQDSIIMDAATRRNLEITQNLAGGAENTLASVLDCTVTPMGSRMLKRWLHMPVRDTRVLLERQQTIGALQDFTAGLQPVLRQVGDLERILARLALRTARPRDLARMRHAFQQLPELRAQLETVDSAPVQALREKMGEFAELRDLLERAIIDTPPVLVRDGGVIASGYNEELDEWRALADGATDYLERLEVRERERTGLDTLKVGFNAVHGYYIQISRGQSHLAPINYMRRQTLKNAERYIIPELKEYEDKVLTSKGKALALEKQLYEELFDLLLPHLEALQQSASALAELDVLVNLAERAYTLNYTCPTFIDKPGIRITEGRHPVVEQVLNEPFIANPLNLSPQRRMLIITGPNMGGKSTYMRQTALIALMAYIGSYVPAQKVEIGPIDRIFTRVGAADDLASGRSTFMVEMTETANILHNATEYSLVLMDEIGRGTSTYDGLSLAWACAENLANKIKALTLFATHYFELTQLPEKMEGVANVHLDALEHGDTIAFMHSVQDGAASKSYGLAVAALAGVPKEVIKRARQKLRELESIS

Data set [2] deals with T2, MutS (Escherichia coli, UniProt P23909 1-853).
T2 sequence: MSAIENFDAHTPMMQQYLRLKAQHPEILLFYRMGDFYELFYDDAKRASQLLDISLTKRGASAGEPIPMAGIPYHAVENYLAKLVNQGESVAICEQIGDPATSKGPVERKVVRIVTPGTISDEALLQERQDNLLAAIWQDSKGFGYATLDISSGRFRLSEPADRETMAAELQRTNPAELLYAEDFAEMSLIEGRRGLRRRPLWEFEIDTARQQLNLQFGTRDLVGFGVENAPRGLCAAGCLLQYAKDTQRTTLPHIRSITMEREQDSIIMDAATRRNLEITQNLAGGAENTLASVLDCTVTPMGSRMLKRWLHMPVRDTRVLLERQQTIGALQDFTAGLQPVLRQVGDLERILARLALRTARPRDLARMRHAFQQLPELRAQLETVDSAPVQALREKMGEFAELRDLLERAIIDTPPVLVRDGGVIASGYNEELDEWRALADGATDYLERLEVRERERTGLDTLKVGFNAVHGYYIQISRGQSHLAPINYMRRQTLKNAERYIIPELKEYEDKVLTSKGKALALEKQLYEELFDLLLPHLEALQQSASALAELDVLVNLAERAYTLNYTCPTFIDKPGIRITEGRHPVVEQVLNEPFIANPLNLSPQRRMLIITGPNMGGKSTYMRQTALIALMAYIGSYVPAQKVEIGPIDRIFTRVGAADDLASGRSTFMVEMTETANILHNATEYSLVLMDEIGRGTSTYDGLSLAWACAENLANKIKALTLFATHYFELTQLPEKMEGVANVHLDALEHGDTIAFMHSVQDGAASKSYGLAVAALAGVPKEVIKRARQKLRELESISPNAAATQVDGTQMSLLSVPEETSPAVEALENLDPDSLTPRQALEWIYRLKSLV

Data set [3] addresses T1, MutSΔ800. The source holds these as a separate data set.
In data set [4] the target is T2, MutS. This is another data set of the same source.

B1: O6-meG-C duplex (dsDNA)
DNA 1: ATACGGAAGTTAAAGTGCGGATCATCTCTAG
DNA 2: CTAGAGATGATCCGCACTTTAACTTCCGTAT
modifications: O6-methylguanine at G17 of strand 1
Regarding B1, the binding result with MutSΔ800 [1] and with MutS [2] was “binds” each time.

B2: Xlink unplatinated homoduplex GG-CC (dsDNA)
DNA 1: CCTCTCCTTGGTCTTCTCCTCTCC
DNA 2: GGAGAGGAGAAGACCAAGGAGAGG
Regarding B2, the binding result in the data set with MutSΔ800 [3] and with MutS [4] was “no binding” throughout.

B3: Xlink platinated GG-CC (dsDNA)
DNA 1: CCTCTCCTTGGTCTTCTCCTCTCC
DNA 2: GGAGAGGAGAAGACCAAGGAGAGG
modifications: cisplatin intrastrand 1,2-GG cross-link at G10-G11 of strand 1
With B3, the binding result was “no binding” with MutSΔ800 [3] and “binds” with MutS [4].

(Values after publication PMC549567.)
